Experimental findings from US20260374880 (published 2026) are described below.

Like-named read-outs stand apart in the source and are kept apart here.

The target in assay [1] is T1, human TGFbR1 ECD-133-huFc (human).
T1 chain: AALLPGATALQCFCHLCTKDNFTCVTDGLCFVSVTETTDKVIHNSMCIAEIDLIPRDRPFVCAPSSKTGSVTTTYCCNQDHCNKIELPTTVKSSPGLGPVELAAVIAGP
In words: ELISA.

The target in assay [2] is T2, human TGFbR1 ECD-133-myc(His)6 (human).
T2 chain: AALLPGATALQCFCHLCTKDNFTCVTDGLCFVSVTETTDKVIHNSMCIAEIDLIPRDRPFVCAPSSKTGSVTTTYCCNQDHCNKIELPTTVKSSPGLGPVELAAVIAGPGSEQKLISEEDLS
The assay can be described thus: BLI. For orientation: In BLI a coated tip is dipped into the sample, and binding shifts an interference pattern.

The target in assay [3] is T2, human TGFbR1 ECD-133-myc(His)6. In words: BLI.
Assay [4] has the same target. In words: ELISA. A general note: An ELISA detects its analyte on a solid surface through an enzyme-linked reagent.

B1: YU772-D10 (antibody, V domains shown)
VH: EVQLLESGGGLVQPGGSLRLSCAASGFTFSSYPMSWVRQAPGKGLEWVSAISGYGGSTYYADSVKGRFTISRDNSKNTLYLQMNSLRAEDTAVYYCARVVGYVYDGSYGGGMDYWGQGTLVTVSS
VL: DIQMTQSPSSLSASVGDRVTITCRASQSISSYLNWYQQKPGKAPKLLIYAASSLQSGVPSRFSGSGSGTDFTLTISSLQPEDFATYYCQQGYGPLTFGQGTKLEIK
As for B1, a half-maximal effect in assay [1] (EC50) was put at 0.0225 µg/mL. In addition, in assay [2], the Kd (usually a measure of binding affinity in units of concentration) came to 7.8 nM.

B2: YU772-H05 (antibody, V domains shown)
VH: EVQLLESGGGLVQPGGSLRLSCAASGFTFSSYAMSWVRQAPGKGLEWVSAISGSGGTTYYADSVKGRFTISRDNSKNTLYLQMNSLRAEDTAVYYCARVVGYVFGGYYGGGMDYWGQGTLVTVSS
VL: DIQMTQSPSSLSASVGDRVTITCRASQSISSYLNWYQQKPGKAPKLLIYAASSLQSGVPSRFSGSGSGTDFTLTISSLQPEDFATYYCQQGYGPLTFGQGTKLEIK
As for B2, the midpoint of the response in assay [1], the EC50, lay at 0.03 µg/mL. In assay [2], this molecule came in with a Kd of 12 nM.

B3: YU772-D10_VH-YU772-C01_VL (antibody, V domains shown)
VH: EVQLLESGGGLVQPGGSLRLSCAASGFTFSSYPMSWVRQAPGKGLEWVSAISGYGGSTYYADSVKGRFTISRDNSKNTLYLQMNSLRAEDTAVYYCARVVGYVYDGSYGGGMDYWGQGTLVTVSS
VL: DIQMTQSPSSLSASVGDRVTITCRASQSIWSYLNWYQQKPGKAPKLLIYAASSLQSGVPSRFSGSGSGTDFTLTISSLQPEDFATYYCQQGYGPLTFGQGTKLEIK
Turning to B3, a half-maximal effect in assay [1] (EC50) was put at 0.0303 µg/mL. Also, in assay [2], the affinity, expressed as Kd, was 7.3 nM.

B4: YU771-E01 (antibody, V domains shown)
VH: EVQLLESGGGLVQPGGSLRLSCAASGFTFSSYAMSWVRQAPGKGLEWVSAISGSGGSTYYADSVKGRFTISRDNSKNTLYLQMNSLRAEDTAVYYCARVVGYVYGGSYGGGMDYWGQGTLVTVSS
VL: DIQMTQSPSSLSASVGDRVTITCRASESISSYLNWYQQKPGKAPKLLIYGASFLQWGVPSRFSGSGSGTDFTLTISSLQPEDFATYYCQQGYGPLTFGQGTKLEIK
As to B4, the EC50 (commonly the concentration needed to bring the measured effect to its halfway point) in assay [1] turned out to be 0.0231 µg/mL. Also, the affinity in assay [2], expressed as Kd, was 8.9 nM.

B5: YU772-F11 (antibody, V domains shown)
VH: EVQLLESGGGLVQPGGSLRLSCAASGFTFSTYPMSWVRQAPGKGLEWVSAISGSGGSTYYADSVKGRFTISRDNSKNTLYLQMNSLRAEDTAVYYCARVVGYVYRGSYGGGMDYWGQGTLVTVSS
VL: DIQMTQSPSSLSASVGDRVTITCRASQSISSYLNWYQQKPGKAPKLLIYAASSLQSGVPSRFSGSGSGTDFTLTISSLQPEDFATYYCQQGYGPLTFGQGTKLEIK
With B5, a half-maximal response in assay [1] (EC50) required 0.0249 µg/mL. This molecule came in with a Kd in assay [2] of 7.6 nM.

B6: YU772-G04_VH-YU771-A09-VL (antibody, V domains shown)
VH: EVQLLESGGGLVQPGGSLRLSCAASGFPFSSYAMSWVRQAPGKGLEWVSAISGSGGTTYYADSVKGRFTISRDNSKNTLYLQMNSLRAEDTAVYYCARVAGYVHRGFYGGGMDYWGQGTLVTVSS
VL: DIQMTQSPSSLSASVGDRVTITCRASQSIYSHLNWYQQKPGKAPKLLIYAASTLQSGVPSRFSGSGSGTDFTLTISSLQPEDFATYYCQQAYGPLTFGQGTKLEIK
In turn, B6 displayed an EC50 in assay [1] of 0.0257 µg/mL. The same molecule showed a Kd in assay [2] of 8.8 nM.

B7: YU771-A01 (antibody, V domains shown)
VH: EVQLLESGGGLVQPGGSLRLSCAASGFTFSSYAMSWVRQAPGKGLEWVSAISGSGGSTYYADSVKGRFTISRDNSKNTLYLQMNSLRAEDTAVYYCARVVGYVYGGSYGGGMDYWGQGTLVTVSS
VL: DIQMTQSPSSLSASVGDRVTITCRASQSISSYLNWYQQKPGKAPKLLIYGASFLQYGVPSRFSGSGSGTDFTLTISSLQPEDFATYYCQQGYGPLTFGQGTKLEIK
As to B7, in assay [1], the EC50 was 0.022 µg/mL. Binding in assay [2] was put at a Kd of 11 nM.

B8: YU772-G12 (antibody, V domains shown)
VH: EVQLLESGGGLVQPGGSLRLSCAASGFPFSTYAMSWVRQAPGKGLEWVSAISGSGGYTYYADSVKGRFTISRDNSKNTLYLQMNSLRAEDTAVYYCARVVGYVYGGSYGGGMDYWGQGTLVTVSS
VL: DIQMTQSPSSLSASVGDRVTITCRASQSISSYLNWYQQKPGKAPKLLIYAASSLQSGVPSRFSGSGSGTDFTLTISSLQPEDFATYYCQQGYGPLTFGQGTKLEIK
In assay [1], B8 yielded an EC50 of 0.0213 µg/mL. In assay [2], this molecule yielded a Kd of 8.7 nM.

B9: mAb #19 human IgG1-LALA (antibody, V domains shown)
VH: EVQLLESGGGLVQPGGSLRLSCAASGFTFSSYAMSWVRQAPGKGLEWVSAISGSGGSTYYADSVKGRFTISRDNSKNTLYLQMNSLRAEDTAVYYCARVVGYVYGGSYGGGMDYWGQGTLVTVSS
VL: DIQMTQSPSSLSASVGDRVTITCRASQSISSYLNWYQQKPGKAPKLLIYAASSLQSGVPSRFSGSGSGTDFTLTISSLQPEDFATYYCQQGYGPLTFGQGTKLEIK
B9: in assay [3], the affinity, expressed as Kd, was 5.9 nM. Further, in assay [4], half-maximal inhibition (IC50) was put at 0.139 nM.

B10: YU771-B12 (antibody, V domains shown)
VH: EVQLLESGGGLVQPGGSLRLSCAASGFTFSSYPMSWVRQAPGKGLEWVSAISGYGGSTYYADSVKGRFTISRDNSKNTLYLQMNSLRAEDTAVYYCARVVGYVYGGSYGGGMDYWGQGTLVTVSS
VL: DIQMTQSPSSLSASVGDRVTITCRASQSISSYLNWYQQKPGKAPKLLIYAASSLQSGVPSRFSGSGSGTDFTLTISSLQPEDFATYYCQQGYGPLTFGQGTKLEIK
The molecule B10 gave an EC50 in assay [1] of 0.0244 µg/mL. For the same molecule, in assay [2], the Kd worked out at 16 nM.

B11: YU772-A11 (antibody, V domains shown)
VH: EVQLLESGGGLVQPGGSLRLSCAASGFTFSSYAMSWVRQAPGKGLEWVSAISGSGGYTYYADSVKGRFTISRDNSKNTLYLQMNSLRAEDTAVYYCARVVGYVYDGAYGGGMDYWGQGTLVTVSS
VL: DIQMTQSPSSLSASVGDRVTITCRASQSISSYLNWYQQKPGKAPKLLIYAASSLQSGVPSRFSGSGSGTDFTLTISSLQPEDFATYYCQQGYGPLTFGQGTKLEIK
Regarding B11, a half-maximal effect in assay [1] (EC50) was put at 0.0314 µg/mL. The molecule further gave a Kd in assay [2] of 7.9 nM.

B12: Antibody 19 (parental) (antibody, V domains shown)
VH: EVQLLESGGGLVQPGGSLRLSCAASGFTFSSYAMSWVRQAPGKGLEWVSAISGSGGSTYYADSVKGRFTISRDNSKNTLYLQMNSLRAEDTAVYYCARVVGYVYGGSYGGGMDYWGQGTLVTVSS
VL: DIQMTQSPSSLSASVGDRVTITCRASQSISSYLNWYQQKPGKAPKLLIYAASSLQSGVPSRFSGSGSGTDFTLTISSLQPEDFATYYCQQGYGPLTFGQGTKLEIK
As to B12, the EC50 in assay [1] worked out at 0.139 µg/mL. For the same molecule, binding in assay [2] was characterised by a dissociation constant (Kd) of 22 nM.
